According to article PMC10201364 (MicrobiologyOpen, 2023):

Assays:
[1] = biological target: Ah‐BarR M103N (P ah‐barR promoter, mKate2 reporter) (Acidianus hospitalis, UniProt F4B5V3, M103N); experiment: cell-based; assay type: cell-based; details: BS1 M103N; 5 mM glutamine, 20 mg/L naringenin (Figure A7)
Method: (§1) Reporter gene assays were performed as previously described (Bernauw et al., [2022]). pPRC6 and pITC variants (Table 1) were co‐transformed in E. coli MG1655 chemical competent cells using heat shock transformation. Transformant colonies of the Ah‐BarR biosensor strains were picked to inoculate wells of a transparent 96‐well plate (Greiner Bio‐One), each well filled with 200 µL of MOPS EZ Rich Defined medium (Teknova), prepared without the addition of the 5X EZ Supplement, after which the plate was incubated overnight in a ThermoMixer C (Eppendorf) at 30°C and 300 rpm. Next, a black 96‐well plate was filled with a naringenin solution prepared in ethanol (250 mg/L or 2.5 g/L), after which a Breathe‐Easy sealing membrane (Sigma‐Aldrich) was applied and the ethanol was evaporated in a ThermoMixer C (Eppendorf) at 75°C. […] Finally, the plate was sealed again using a Breathe‐Easy sealing membrane (Sigma‐Aldrich).
(§2) Plates were incubated at 30°C and 300 rpm for 40 h in a Synergy H1 microplate reader (BioTek) with measurements of OD600 and fluorescence (excitation wavelength: 588 nm, emission wavelength: 633 nm) being taken every 20 min. The gain was set to 140 for all measurements, except for the measurements with the amino acids (pools and separately), where the gain was set to 150. […] In addition, wells solely containing medium were measured as well to correct for the background signal.
(§3) Reporter expression was analyzed at t = 30 h, when all cultures had reached the stationary phase, by taking into account three subsequent time points (t–1, t, t+1). The corrected FL/OD600 value was calculated for each replicate (n = 4) as follows: FL/ODcor=FLt−1−FLmed,t−1/ODt−1−ODmed,t−1+FLt−FLmed,t/ODt−ODmed,t+FLt+1−FLmed,t+1/ODt+1−ODmed,t+1/3
(§4) Response curves were fitted to a Hill function of the shape P(M)=b+aM^n/θ^n+M^nforaβ−alanine−inducible responseb+aθ^n/θ^n+M^nforaβ−alanine−repressible response according to a previously published procedure (Landry et al., [2018]) with minor adaptations. […] Briefly, lmfit 1.1.0 was used to fit all replicates of a response curve to the appropriate Hill function using the Levenberg‐Marquardt algorithm (Moré, [1978]; Newville et al., [2016]). […] The dynamic range was estimated as μ=a/b .

[2] = biological target: Ah‐BarR M103T (P ah‐barR promoter, mKate2 reporter) (Acidianus hospitalis, UniProt F4B5V3, M103T); experiment: cell-based; assay type: cell-based; details: BS1 M103T; 5 mM glutamine, 20 mg/L naringenin (Figure A7)
Method: as §1, §2, §3, §4

[3] = test system: T1, Ah-BarR WT (Acidianus hospitalis), ORF:d4ab5e4b; experiment: in-gel Cu-OP footprinting; details: 20 mM Tris-HCl pH 8.0, 50 mM NaCl, 0.4 mM EDTA, 0.1 mM DTT, 1 mM MgCl2, 12.5% glycerol, 25 ug/mL salmon sperm DNA, 25 min at 37 C (EMSA)
T1 sequence: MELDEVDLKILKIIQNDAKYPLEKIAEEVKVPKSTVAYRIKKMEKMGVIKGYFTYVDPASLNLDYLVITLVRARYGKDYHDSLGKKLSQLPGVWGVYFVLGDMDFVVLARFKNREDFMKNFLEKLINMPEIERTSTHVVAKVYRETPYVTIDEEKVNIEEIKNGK

[4] = test system: T1, Ah-BarR WT (Acidianus hospitalis), ORF:d4ab5e4b; experiment: EMSA; details: 20 mM Tris-HCl pH 8.0, 50 mM NaCl, 0.4 mM EDTA, 0.1 mM DTT, 1 mM MgCl2, 12.5% glycerol, 25 ug/mL salmon sperm DNA, 25 min at 37 C (EMSA)
[5] = test system: T2, Ah-BarR trunc (Acidianus hospitalis), ORF:d4ab5e4b; experiment: EMSA; details: 20 mM Tris-HCl pH 8.0, 50 mM NaCl, 0.4 mM EDTA, 0.1 mM DTT, 1 mM MgCl2, 12.5% glycerol, 25 ug/mL salmon sperm DNA, 25 min at 37 C (EMSA)
T2 sequence: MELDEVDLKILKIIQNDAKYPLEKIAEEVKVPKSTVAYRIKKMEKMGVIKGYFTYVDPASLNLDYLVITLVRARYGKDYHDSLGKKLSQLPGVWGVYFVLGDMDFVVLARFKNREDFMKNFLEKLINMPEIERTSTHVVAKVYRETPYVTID

[6] = test system: Ah-BarR WT (Acidianus hospitalis); experiment: EMSA; details: no beta-alanine; octamer concentration; 20 mM Tris-HCl pH 8.0, 50 mM NaCl, 0.4 mM EDTA, 0.1 mM DTT, 1 mM MgCl2, 12.5% glycerol, 25 ug/mL salmon sperm DNA, 25 min at 37 C (EMSA)

Chain of Ah‐BarR M103N (P ah‐barR promoter, mKate2 reporter) (F4B5V3 entry or part of it M103N): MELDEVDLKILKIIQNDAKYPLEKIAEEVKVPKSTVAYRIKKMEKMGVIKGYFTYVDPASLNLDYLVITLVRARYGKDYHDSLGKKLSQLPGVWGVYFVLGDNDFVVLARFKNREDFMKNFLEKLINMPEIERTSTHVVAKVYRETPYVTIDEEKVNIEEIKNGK
Chain of Ah‐BarR M103T (P ah‐barR promoter, mKate2 reporter) (F4B5V3 entry or part of it M103T): as the sequence (F4B5V3 entry or part of it M103N) above, with N103T counted along it

Compound: NC(=O)CC[C@H](N)C(=O)O [glutamine]
- glutamine response of reporter expression [1]: did not lead to the acquisition of a glutamine‐specific response
- glutamine response of reporter expression [2]: did not lead to the acquisition of a glutamine‐specific response

Compound: CCTTATACATTTTATCGACGAATAAGTTGAATATACAACTAAATAAAAAGGGATTATCTTGGAAATTATACAGAGACATTCCAAAGCAAGATTTAAACTATTGTACTTTTTACAATAGCTGTCCTAAAATACTTAAATTCCGTCTAAACTACTAGTATCGCATGGATG (double strand) [WT promoter short 168 bp]
- binding [3]: binds

Compound: CTTTAAGTCTACCTCGTCTAGCTCCATAATATATAATTAGAAGAGGTAATTTAAACCTTATACATTTTATCGACGAATAAGTTGAATATACAACTAAATAAAAAGGGATTATCTTGGAAATTATACAGAGACATTCCAAAGCAAGATTTAAACTATTGTACTTTTTACAATAGCTGTCCTAAAATACTTAAATTCCGTCTAAACTACTAGTATCGCATGGATGAAGATGTCGTTAAATTGGTTAAAGAACATACTTTCGGAACTTGGAAAGTTC (double strand) [WT promoter 274 bp]
- Kd [4]: 12 nM
- binding [4]: binds
- binding [5]: binds

Compound: CTTTAAGTCTACCTCGTCTAGCTCCATAATATATAATTAGAAGAGGTAATTTAAACCTTATACATTTTATCGACGAATAAGTTGAATATACAATTTAATAAAAAGGGATTATCTTGGAAATTATACAGAGACATTCCAAAGCAAGATTTAAACTATTGTACTTTTTACAATAGCTGTCCTAAAATACTTAAATTCCGTCTAAACTACTAGTATCGCATGGATGAAGATGTCGTTAAATTGGTTAAAGAACATACTTTCGGAACTTGGAAAGTTC (double strand) [Promoter mutant 1 (mut1) 274 bp]
- Kd [4]: 31 nM

Compound: CTTTAAGTCTACCTCGTCTAGCTCCATAATATATAATTAGAAGAGGTAATTTAAACCTTATACATTTTATCGACGAATAAGTTGAATATACAATTTAATAAAAAGGGATTATCTTGGAAATTATATTTAGACATTCCAAAGCAAGATTTAAACTATTGTACTTTTTACAATAGCTGTCCTAAAATACTTAAATTCCGTCTAAACTACTAGTATCGCATGGATGAAGATGTCGTTAAATTGGTTAAAGAACATACTTTCGGAACTTGGAAAGTTC (double strand) [Promoter mutant 2 (mut2) 274 bp]
- Kd [4]: 36 nM

Compound: CTTTAAGTCTACCTCGTCTAGCTCCATAATATATAATTAGAAGAGGTAATTTAAACCTTATACATTTTATCGACGAATAAGTTGAATATACAATTTAATAAAAAGGGATTATCTTGGAAATTATATTTAGACATTCCAAAGCAAGATTTAAACTATTGTACTTTTTATTTTAGCTGTCCTAAAATACTTAAATTCCGTCTAAACTACTAGTATCGCATGGATGAAGATGTCGTTAAATTGGTTAAAGAACATACTTTCGGAACTTGGAAAGTTC (double strand) [Promoter mutant 3 (mut3) 274 bp]
- binding [4]: no binding

Compound: WT promoter 274 bp
- Kd [6]: 12 nM
